Measured values taken from article doi:10.1101/2021.03.15.435402, “GTP and lipids control self-assembly and functional promiscuity of Dynamin2 molecular machinery” (bioRxiv, 2021).

Assays:
[1] = target: the molecule itself; experiment: single-molecule fluorescence microscopy (oligomer size from mEGFP intensity); Dyn2-mEGFP 20 nM pulse-perfused on membrane nanotubes (40 mol% PE, 0.1 mol% Cy5-PE), protein washed off from the bulk, no nucleotide (apo); total fluorescence divided by the mean intensity of a single mEGFP
[2] = target: the molecule itself; experiment: single-molecule fluorescence microscopy (oligomer size from mEGFP intensity); Dyn2-mEGFP (10-20 nM) premixed with 0.2 mM LUVs (Rh-DOPE) added to nanotubes, no GTP; mEGFP fluorescence colocalized with LUVs tethered to the nanotube

B1: Dyn2 labeled with monomeric GFP (Dyn2-mEGFP) (natural protein, UniProt P50570 1-870, looked up)
chain: MGNRGMEELIPLVNKLQDAFSSIGQSCHLDLPQIAVVGGQSAGKSSVLENFVGRDFLPRGSGIVTRRPLILQLIFSKTEHAEFLHCKSKKFTDFDEVRQEIEAETDRVTGTNKGISPVPINLRVYSPHVLNLTLIDLPGITKVPVGDQPPDIEYQIKDMILQFISRESSLILAVTPANMDLANSDALKLAKEVDPQGLRTIGVITKLDLMDEGTDARDVLENKLLPLRRGYIGVVNRSQKDIEGKKDIRAALAAERKFFLSHPAYRHMADRMGTPHLQKTLNQQLTNHIRESLPALRSKLQSQLLSLEKEVEEYKNFRPDDPTRKTKALLQMVQQFGVDFEKRIEGSGDQVDTLELSGGARINRIFHERFPFELVKMEFDEKDLRREISYAIKNIHGVRTGLFTPDLAFEAIVKKQVVKLKEPCLKCVDLVIQELINTVRQCTSKLSSYPRLREETERIVTTYIREREGRTKDQILLLIDIEQSYINTNHEDFIGFANAQQRSTQLNKKRAIPNQGEILVIRRGWLTINNISLMKGGSKEYWFVLTAESLSWYKDEEEKEKKYMLPLDNLKIRDVEKGFMSNKHVFAIFNTEQRNVYKDLRQIELACDSQEDVDSWKASFLRAGVYPEKDQAENEDGAQENTFSMDPQLERQVETIRNLVDSYVAIINKSIRDLMPKTIMHLMINNTKAFIHHELLAYLYSSADQSSLMEESADQAQRRDDMLRMYHALKEALNIIGDISTSTVSTPVPPPVDDTWLQSASSHSPTPQRRPVSSIHPPGRPPAVRGPTPGPPLIPVPVGAAASFSAPPIPSRPGPQSVFANSDLFPAPPQIPSRPVRIPPGIPPGVPSRRPPAAPSRPTIIRPAEPSLLD
notes: Dynamin 2 (Dyn2) fused to monomeric EGFP; source: purified
Question: Which “stoichiometry N” value [1] does the source give for B1 here?
Answer: The value was 12 ± 6 mEGFP units.

Question: What about the “stoichiometry N” value [2] of the same protein?
Answer: Its value is 38 ± 16 molecules.
